Consider one molecule from PMC10578478.

The target of data set [1] is T1, Pla1 poly(A) polymerase wild-type (Schizosaccharomyces pombe (fission …, UniProt Q10295 1-566)).
T1 sequence: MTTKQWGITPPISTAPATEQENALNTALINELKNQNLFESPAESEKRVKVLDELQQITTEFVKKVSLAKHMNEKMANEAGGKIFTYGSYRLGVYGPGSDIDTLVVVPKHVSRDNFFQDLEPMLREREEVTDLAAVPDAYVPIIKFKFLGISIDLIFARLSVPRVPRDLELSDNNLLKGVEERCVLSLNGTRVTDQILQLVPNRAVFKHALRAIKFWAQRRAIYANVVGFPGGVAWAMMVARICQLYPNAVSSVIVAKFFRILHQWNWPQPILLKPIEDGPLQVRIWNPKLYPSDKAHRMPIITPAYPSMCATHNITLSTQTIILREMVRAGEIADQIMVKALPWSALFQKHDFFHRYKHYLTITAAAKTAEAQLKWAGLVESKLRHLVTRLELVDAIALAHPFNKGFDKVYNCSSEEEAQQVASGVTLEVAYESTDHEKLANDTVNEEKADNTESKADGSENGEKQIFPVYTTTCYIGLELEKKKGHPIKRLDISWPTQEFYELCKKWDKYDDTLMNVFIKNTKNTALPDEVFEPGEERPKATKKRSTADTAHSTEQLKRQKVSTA
In words: fluorescence polarization.

The target in a further data set is T2, Pla1-Y86D (Schizosaccharomyces pombe (fission …, UniProt Q10295 1-566, Y86D)).
T2 sequence: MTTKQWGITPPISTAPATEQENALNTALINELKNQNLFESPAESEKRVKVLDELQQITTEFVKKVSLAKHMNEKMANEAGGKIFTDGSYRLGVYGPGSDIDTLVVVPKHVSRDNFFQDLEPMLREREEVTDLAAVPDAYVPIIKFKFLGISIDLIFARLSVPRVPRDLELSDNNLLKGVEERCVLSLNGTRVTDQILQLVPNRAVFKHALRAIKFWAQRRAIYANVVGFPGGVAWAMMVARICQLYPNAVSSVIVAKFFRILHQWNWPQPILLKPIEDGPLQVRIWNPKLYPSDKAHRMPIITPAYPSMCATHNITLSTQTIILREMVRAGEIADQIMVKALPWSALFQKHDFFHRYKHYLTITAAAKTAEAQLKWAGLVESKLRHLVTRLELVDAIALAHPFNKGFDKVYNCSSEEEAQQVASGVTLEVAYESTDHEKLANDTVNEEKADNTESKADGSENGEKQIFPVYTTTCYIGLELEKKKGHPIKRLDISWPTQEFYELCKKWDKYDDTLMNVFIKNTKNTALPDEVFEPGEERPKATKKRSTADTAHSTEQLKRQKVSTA
The experiment in a line: fluorescence polarization. A general note: Polarisation of emitted light reports the rotation of a fluorescent probe.

B1: 12-mer RNA primer (ssRNA)
RNA: UUUCUGUGGCUA
As usually defined, the Kd is the free concentration of one partner at which half of the binding sites on the other are occupied at equilibrium, for simple one-to-one binding. Low readings indicate tighter binding, high ones weaker binding. B1 displayed a dissociation constant Kd in data set [1] of roughly 456 nM. In addition, the binding result with Pla1-Y86D is recorded as “no binding”.
